Molecular target: HoLaMa DNA polymerase (Klenow sub-fragment lacking the 3'-5' exonuclease domain) (UniProt P00582)
Experiment: intrinsic tryptophan fluorescence quenching titration
Settings: 500 nM enzyme; n = 1.24 ± 0.03 DNA per enzyme; no dNTP; Kd titration: 50 mM sodium phosphate pH 8.0, 50 mM NaCl, temperature not stated in the material; stopped-flow: 50 mM Tris-HCl pH 8.0, 0.5 mM EDTA, 10 mM MgCl2 …

UniProt P00582, sequence (P00582 whole entry, the tested form may be a part): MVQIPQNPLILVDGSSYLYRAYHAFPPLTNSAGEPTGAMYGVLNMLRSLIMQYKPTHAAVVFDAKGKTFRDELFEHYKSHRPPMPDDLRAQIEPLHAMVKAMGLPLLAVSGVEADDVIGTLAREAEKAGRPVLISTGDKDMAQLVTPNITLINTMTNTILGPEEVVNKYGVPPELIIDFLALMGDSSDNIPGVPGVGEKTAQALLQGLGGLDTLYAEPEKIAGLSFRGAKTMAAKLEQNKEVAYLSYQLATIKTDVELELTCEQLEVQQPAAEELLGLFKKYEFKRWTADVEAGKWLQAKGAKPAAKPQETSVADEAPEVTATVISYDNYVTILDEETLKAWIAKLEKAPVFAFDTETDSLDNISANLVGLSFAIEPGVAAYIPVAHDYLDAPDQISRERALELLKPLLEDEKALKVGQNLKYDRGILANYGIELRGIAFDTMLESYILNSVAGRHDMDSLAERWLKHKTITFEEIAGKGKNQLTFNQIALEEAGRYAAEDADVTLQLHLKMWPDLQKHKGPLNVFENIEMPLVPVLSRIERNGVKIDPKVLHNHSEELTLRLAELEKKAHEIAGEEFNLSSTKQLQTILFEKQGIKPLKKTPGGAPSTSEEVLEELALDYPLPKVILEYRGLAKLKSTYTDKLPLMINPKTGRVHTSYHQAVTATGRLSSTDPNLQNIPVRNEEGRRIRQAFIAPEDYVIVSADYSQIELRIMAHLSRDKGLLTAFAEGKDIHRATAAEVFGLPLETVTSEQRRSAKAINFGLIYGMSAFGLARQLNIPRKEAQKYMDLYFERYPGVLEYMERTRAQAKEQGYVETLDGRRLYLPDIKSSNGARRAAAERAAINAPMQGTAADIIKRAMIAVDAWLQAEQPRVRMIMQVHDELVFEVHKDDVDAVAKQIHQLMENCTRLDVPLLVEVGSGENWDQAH

AAAAAAAAAAAAAAAAAAAAAAAAAAAAAAAAGCGCGCGC / GCGCGCGCTTTTTTT [40mer polyA DNA (40mer template / 15mer primer)]
Kd: 0.0351 µM

From article PMC6457538
